Laboratory results taken from the DeepSol protein solubility set.

test: soluble on expression in E. coli; label from the status in PepcDB or PDB records

Sequence	soluble on expression in E. coli
MFRLSALYRYPIKSSAAESLERVALDALGVVGDRRWMAVDTETGRFFTQRLLPQLGRIQARWAAPEVLRLNAPGMSELSLEVPAADANLRGVTVWRDTLQAPDAGDAAADWLTRFLGRPTRLVHIPEARARQVDTGYAEPGQKVHFADGFPLLLIGQASLDDLSQRVGRPLEMLRFRPNLVVEGSAAFAEDGWKRIRIGSVEFVVAKPCSRCILTTLDPATGERNEDREPLTTLKTYREKDGAVLFGQNLIALGQGSLEVGMPVEILD	soluble
MRLWRICFKDPEPFIELYFHKVFREDYTLLQYSETGEAVAHLQMLPYQLRIFGTSFSAGYISGACTHPDHRGKGIMRTMMAEALSAIYDRGDICSFLIPAETWLYDFYSRSGGYAPAFGRKQFLYRPNSIPQKFPSGYACTIGQGDYSFLSAEEHTDIRLAVQHTLGQWQTALKDFSLAGGNVAMLQDSAGKTVSQACFVPRENSLDIKLLVGDAEATFILVDHLLRSLDCDHASILAHSGSAPYGMLRILRPIPILEAFAQYHPAEGYSFAYSDPLFSQHNGTYHISKGRIVFSNNVQPENSLLPHHTPDSLVKDLFSPFPSALFLMLD	not soluble
MSLVMVVDGSKLVRKLITDVLRRELPEVDVIGCVGIAEARQTLEAGTVDLVTTSLFLPDGDGLALARSVREEAGQAYVPVIVVSGDTQQHLVERRFTEYVTDYFDKALGHEALAAFIRGYVQPEPVSSGTVLYVEDSCVVAEATTRMLERQGLRVVHVLTAEDAFALLTAESLGRTEYRINLVLTDVTLKGELSGCDVVQRIRIDFSYGKRRLPVLVMTGDTNSQNQSELLRAGANDLVQKPIEERLLVTKVLFQLRLARLKDDLATIEGHHHHHH	not soluble
SMITIKFDLNRYSCSWGAGGAFGGNRGLRPIPPEKGIFPLDHLHECDAEKKEYLGCLKSSAHKSEQCRHLSKKYLQCRMAKNLMAKQDMAELGFSGVKELDSTEDKNTESIEH	soluble
MGSDKIHHHHHHVKRFDWYTEIHRLDAEADCRRITEILTTHEFPWDIEQALSLALYRTYAVPSIGQLLAETREFLDRTQRRSDDTALILTEIMRHGFEPGRGRDALRRMNQMHRSYDISNDDYLYVLSTFVVMPVRWINDLGYGWRRLTEHEITANTNYYRLLGKHMGIKEIPETYDEFYELFDSYEIAHFGYSEGGRAVSDATLRLMVDTVPRWQQPVFRKFTMALLDDRLIQAFRYDPPSRFWRTAAHLAMWLRAKIVRFMPPRVEPYRIENNPKIKSYPNGYDPRRIGTFPKGCPVPHDMVTIEIPETGARIPAPGQELAPQGQDARA	not soluble
MGSDKIHHHHHHMQLPSLQSATLIRRYKRFLADVQLPSGDITTLHCANTGAMIGCGSQGDTLWYSTSDSATRKYPSSWELTQLANGHLVCINTHRSNQLTFDALQKKQIIELAMYDKIYPEVKYGEENSRIDFLLKGKDLPDCYVEVKSITYVDNDKKLGMFPDAVTTRGQKHLRELISMKKQGHRAVIFFCGLHDGFDHFQIAKHIDARYDELLHQALKEGVEAYAYAAEFEKTQGIPTALNLTKVAPFKAG	not soluble
MAHHHHHHMADRGDARVVHVFVDDLSAVLAEDVHEWLRIIGDIDELKMRYDASRQRSFYWVRFHQSSAARLAVDHLDGERLKNHAIEIHSNVFKKQTAAVATLEGAAGGVQEEKTKLEMNPNLPKNHLMPRDLQMDELLVRAIPEMLETSEQAAEGGELLQRLLELQESYCRAQESLERTTEGIRETDGELTALLRGETTAATDVSGPSSEGFVQGNTPLASARIRNAVPVPLSTCDPAGLLSKLTRHVGPVADYAFSFASNGGSFATVVELFHPDDADFALALLTGRRMVSKSTEKHADAEDALAALVGFGWEAEASVAPLTPPSVPQASFAAHNRVATILRSCRSVA	not soluble
RNEHTGELRLGASTTIAQYVLPPLLARFIEKFPQVSLSLFSGNSSEVEKALQEHRIDLALVEGNTRQPNLKYTPFLQDELVAIVHTHSKWMDYDEITLDELKEVPLVLRERGSGTLDVLITALHKHNIKLSDLTIRMHLGSTESIK	not soluble
MDRFDAMQAFARVVDTGSFTKAAETLHMSRTSVTQLVQQLEARLRVRLLNRTTRKLNLTADGAAYYERVVRLLAELDDAETSLSSAALAPRGRLRIDVPSPLARLLLIPALPEFHARYPEIQIDLGVSDRLVDLIDENVDCVIRGGELRDQSLMARRVGDLQLGVYAAPAYLQRAGVPSHPRELEDSHQRIVGFLWARTGKALPYAMRRGEECLRVAGRHVLAVDDGNAYLAAGLAGLGILWLPHYMAREPLARGELLPLFEDWSLEPMPLYLAFPPNRHVSGKLRVFIEWVAELIARHAPPLHPPL	not soluble
MSLTLAFAYVRASTIEEVRQGSNERQKEAIRQYTYQKGYELEIFEDKAKSGRNTLRPEFERMLKSLDRRPQIVIVSKIDRFARSLSDLLKTLEYLDQNGVGFVSVNDPGIDTTTPNGRLLLQILGAFAEFERNMINSRTKAGREQAQSKGVKFGRPPLKTRNGSFIDRRKVMELKQKGLSARAIAKSLECSTTPILRILRENEGHHHHHH	soluble
MNGKRPAEPGPARVGKKGKKEVMAEFSDAVTEETLKKQVAEAWSRRTPFSHEVIVMDMDPFLHCVIPNFIQSQDFLEGLQKELMNLDFHEKYNDLYKFQQSDDLKKRREPHISTLRKILFEDFRSWLSDISKIDLESTIDMSCAKYEFTDALLCHDDELEGRRIAFILYLVPPWDRSMGGTLDLYSIDEHFQPKQIVKSLIPSWNKLVFFEVSPVSFHQVSEVLSEEKSRLSISGWFHGPSLTRPPNYFEPPIPRSPHIPQDHEILYDWINPTYLDMDYQVQIQEEFEESSEILLKEFLKPEKFTKVCEALEHGHVEWSSRGPPNKRFYEKAEESKLPEILKECMKLFRSEALFLLLSNFTGLKLHFLAPSEEDEMNDKKEAETTDITEEGTSHSPPEPENNQMAISNNSQQSNEQTDPEPEENETKKESSVPMCQGELRHWKTGHYTLIHDHSKAEFALDLILYCGCEGWEPEYGGFTSYIAKGEDEELLTVNPESNSLALVYRDRETLKFVKHINHRSLEQKKTFPNRTGFWDFSFIYYE	not soluble
MDLEEQKKAVIEKLIREGYIKSKRVIDALLKVPREEFLPEHLKEYAYVDTPLEIGYGQTISAIHMVGMMCELLDLKPGMKVLEIGTGCGYHAAVTAEIVGEDGLVVSIERIPELAEKAERTLRKLGYDNVIVIVGDGTLGYEPLAPYDRIYTTAAGPKIPEPLIRQLKDGGKLLMPVGRYLQRLVLAEKRGDEIIIKDCGPVAFVPLVGKEGFQG	soluble
MSYKEGDVLVTNGEQSPGYKIVEIKGLVVGITVRSRGLGKNIIASLRSLLGGEIKEYVELAEQARLQALQRMVDNAKALGANAVVNVRFDSNELSEAMDEIIAYGTAVVVEKSS	soluble
GMKVTNYQGATIDPYSKGLGMVPGTSIQLTDAARLEWNLLNEDVSLPAAVLYADRVEHNLKWMQAFVAEYGVKLAPHGKTTMAPQLFRRQLETGAWGITLATAHQVRAAYHGGVSRVLMANQLVGRRNMMMVAELLSDPEFEFFCLVDSVEGVEQLGEFFKSVNKQLQVLLELGVPGGRTGVRDAAQRNAVLEAITRYPDTLKLAGVELYEGVLKEEHEVREFLQSAVAVTRELVEQERFARAPAVLSGAGSAWYDVVAEEFVKASETGKVEVVLRPGCYLTHDVGIYRKAQTDIFARNPVAKKMGEGLLPALQLWAYVQSIPEPDRAIIGLGKRDSAFDAGMPEPARHYRPGNEAPRDIAASEGWEIFGLMDQHAYLRIPAGADLKVGDMIAFDISHPCLTFDKWRQVLVVDPAYRVTEVIETFF	soluble
MGSDKIHHHHHHMFFEIALIGTTASGKTYIANTLAREFNAVVLSLDSLCVYKEINIASAKPSQDDLASIKYFGVNLLSVNEHFNVELFIREYQKAKEFALARNLPLIIVGGTGFYLKTMIDGLSEKTLESKSSLNNDEIYALLLNIDPNYKIEKNDTYRLKKWLGIYEQTREIPSEFLKRTQKTGVLKDIEIYELAWDKEILKKRIKTRTKEMLDNGLLDEAKILFSKFDHKLKALNSIGLKECKEYLDGEISFKELENLITIHTTQLAKRQRTFNKKFQSKALEFDKALATLRMKFSIEK	not soluble
MNRLPTCLLAATLFLGSASLYAEDPACARVRLADPGWSDIAVTNATAAFLLESLGYQVKIDTLSVPIIYGGLRDGQVDAFLGGWMPAHQDYHDKFVASGQVERLGRNLDGTRFTLAVPRYVWDAGVHRFEDLAAQGQRFNRKLYGIGSGAPANQSIQKMIDANQFGLGDWKLVESSEQAMLAELGRAEKRQRWLVFLGWTPHPMNIRHDLRYLEGGEQYFGDRGQVYTLARKGYAAQCPNPARLLANLRFDLDMENRLMSDALEGTATPASATRAWLKANPRVLEAWLQGVTSRDGGDALAAVRGQP	not soluble
MAGDPMPTLFDDPLHQLPRPPRRVAAGVVHLPNFLGLAEQKALVAQARDLAREVVGTPLAMVRPKLKSGQMSVHMLHLGKYWASNPYRYVDVVDGFPVPPLPDSFVDLAHRALLSAGSLSNSLQSWSEAYRAEAALVNYYSPDASMGMHQDANEESEAPVISLSIGDTGIFRLGGTLNRNKPWTDIPLMSGDLIVFGGANRQAFHGIPSIEANTAPAGCGLKEGRINITIRQLALAAALEHHHHHH	soluble
MTRSVSHPPYADPFAHPPETSPQELTAQLTPGARFQDVRFENYRPNPEFPSQAQARDQLAEFVRQAGQKASGGGFWPFKRRAPEGRGFYLDGGFGVGKTHLLASAYHAAKGQSGGSGGDVAFMSFQDLMYLIGALGMPQAIETFRNYKLLLIDEFELDDPGNTHMANTFLGGLMPSGVSVVATSNTEPGALGAGRFNAEDFQRQIQGIADRFGPHRIDGPDYRQRGTEPAQPLSEAEFAAWLARQNPQTTALMTHAELNRALLSVHPSRFARVLEQVSGVAVTNLEPMPEQGEALRFVHFVDKVYDLGLSAAFTGVPLNALFDDIYRNGGYAKKYSRALSRLSEMLREARGLEHHHHHH	not soluble
MAELQFPGVYVEDVGHLAFGTLKLTEKSLNFKGDKGGKSVNVTGSDIDKLKWQKLGNKPGLRVGLNDGGAHRFGGFKDTDLEKIQSFTSSNWSQSIDQSNLFIKGWNYGQAEVKGKTVEFSWEDKPIFEIPCTNVSNVIANKNEAVLEFHQNDDSKVQLMEMRFHMPIDLENEEDADKVEEFKKAVLAYAGLEAETEQPICLLTDILCTTPRGRYDIKVYPTSIALHGKTYDYKIPIKSINRLFLVPHKDGRHVYFVLSLNPPIRQGQTRYSYLIFEFGKDEEQDLELALTDEQLESSNGNLRRDMTGPIYETISILFKSICNLKITVPGRFLGSSGTPAIQCTHRQNPGLLYPMEKGFLFIHKPAMYIRFEEISSCHFARSDSGTVTRTFDFEIDLKYGGPLTFNAMEKEENNKLFDYLNKKNIKIRNSQRVENTVADSSDDEIDPYKAAVTAEGRQRDDSDDDSTDEDYDLDKDIKKKKEDKESSEGTGSEPDDEYDSGSEQDSSGTGESEPDSEQDVPSKRRKGEPKEKREKKEKREKKEGKKGKKDKDPNAPKRATSAYMQWFLASRNELKEDGDSVADVAKKGGAKWKTMSSDDKKKWEEKAEEDKSRYEKEMKEYRKNGPPSSSSKPSSSKTSKKSSGPSSSKAISKEYISDSDDSDDEEPKKKEKKAAPKEESEESNNGSDGSDESDDSD	soluble
MMIVKRFILGEYSTNTYLVVSGDEGILIDVAENPSEVIDYILTNNIKLKSIYATHGHFDHVLGVTEVKKYFNVPFFLHRSDLDLLRRDERTKGIVPDGFIDEKSIIKIGNEELKVIETPGHTMGSVCYIFDDGIFTGDTLFNGSIGRYDLGGDKNLLKKSLNRLMELNDGLTVYPGHGFFTTLGYEKLTNPFLNGEFEW	soluble
